{"source": "ChEMBL document CHEMBL1152693", "about": "“A rapid method for generation of selective Sox-based chemosensors of Ser/Thr kinases using combinatorial peptide libraries” (Bioorg Med Chem Lett, 2009)", "key": {"[1]": {"substrate": "CC(=O)N[C@@H](C)C(=O)NCC(=O)N[C@@H](CCCNC(=N)N)C(=O)N[C@@H](CCCNC(=N)N)C(=O)N[C@@H](Cc1ccc(O)cc1)C(=O)N[C@@H](CO)C(=O)N[C@@H](CC(C)C)C(=O)N[C@@H](CSCc1ccc2c(S(=O)(=O)N(C)C)ccc(O)c2n1)C(=O)N[C@H](C)C(=O)N[C@@H](C)C(N)=O", "experiment": "(§1) Activity of Aurora A"}, "[2]": {"substrate": "CC(=O)N[C@@H](C)C(=O)N[C@@H](CC(C)C)C(=O)N[C@@H](CCCNC(=N)N)C(=O)N[C@@H](CCCNC(=N)N)C(=O)N[C@@H](C)C(=O)N[C@@H](CO)C(=O)N[C@@H](CC(C)C)C(=O)N[C@@H](CSCc1ccc2c(S(=O)(=O)N(C)C)ccc(O)c2n1)C(=O)N[C@@H](C)C(=O)N[C@@H](C)C(N)=O", "experiment": "as §1"}, "[3]": {"substrate": "CC(=O)N[C@@H](C)C(=O)N[C@@H](CC(C)C)C(=O)N[C@@H](CCCNC(=N)N)C(=O)N[C@@H](CCCNC(=N)N)C(=O)N[C@@H](Cc1ccccc1)C(=O)N[C@@H](CO)C(=O)N[C@@H](CC(C)C)C(=O)N[C@@H](CSCc1ccc2c(S(=O)(=O)N(C)C)ccc(O)c2n1)C(=O)NCC(=O)N[C@@H](C)C(N)=O", "experiment": "as §1"}, "[4]": {"substrate": "CC(=O)N[C@@H](C)C(=O)N[C@@H](CC(C)C)C(=O)N[C@@H](CCCNC(=N)N)C(=O)N[C@@H](CCCNC(=N)N)C(=O)N[C@@H](Cc1ccccc1)C(=O)N[C@@H](CO)C(=O)N[C@@H](CC(C)C)C(=O)N[C@@H](CSCc1ccc2c(S(=O)(=O)N(C)C)ccc(O)c2n1)C(=O)N[C@@H](C)C(=O)N[C@@H](C)C(N)=O", "experiment": "as §1"}, "[5]": {"substrate": "CC(=O)N[C@@H](C)C(=O)NCC(=O)N[C@@H](CCCNC(=N)N)C(=O)N[C@@H](CCCNC(=N)N)C(=O)N[C@@H](Cc1ccc(O)cc1)C(=O)N[C@@H](CO)C(=O)N[C@@H](CC(C)C)C(=O)N[C@@H](CSCc1ccc2c(S(=O)(=O)N(C)C)ccc(O)c2n1)C(=O)N[C@H](C)C(=O)N[C@@H](C)C(N)=O", "experiment": "(§2) Ratio of Kcat to Km for Aurora A"}, "[6]": {"substrate": "CC(=O)N[C@@H](C)C(=O)N[C@@H](CC(C)C)C(=O)N[C@@H](CCCNC(=N)N)C(=O)N[C@@H](CCCNC(=N)N)C(=O)N[C@@H](C)C(=O)N[C@@H](CO)C(=O)N[C@@H](CC(C)C)C(=O)N[C@@H](CSCc1ccc2c(S(=O)(=O)N(C)C)ccc(O)c2n1)C(=O)N[C@@H](C)C(=O)N[C@@H](C)C(N)=O", "experiment": "as §2"}, "[7]": {"substrate": "CC(=O)N[C@@H](C)C(=O)N[C@@H](CC(C)C)C(=O)N[C@@H](CCCNC(=N)N)C(=O)N[C@@H](CCCNC(=N)N)C(=O)N[C@@H](Cc1ccccc1)C(=O)N[C@@H](CO)C(=O)N[C@@H](CC(C)C)C(=O)N[C@@H](CSCc1ccc2c(S(=O)(=O)N(C)C)ccc(O)c2n1)C(=O)NCC(=O)N[C@@H](C)C(N)=O", "experiment": "as §2"}, "[8]": {"substrate": "CC(=O)N[C@@H](C)C(=O)N[C@@H](CC(C)C)C(=O)N[C@@H](CCCNC(=N)N)C(=O)N[C@@H](CCCNC(=N)N)C(=O)N[C@@H](Cc1ccccc1)C(=O)N[C@@H](CO)C(=O)N[C@@H](CC(C)C)C(=O)N[C@@H](CSCc1ccc2c(S(=O)(=O)N(C)C)ccc(O)c2n1)C(=O)N[C@@H](C)C(=O)N[C@@H](C)C(N)=O", "experiment": "as §2"}}}
{"protein": "Aurora kinase A (Homo sapiens), O14965 (protein) MDRSKENCISGPVKATAPVGGPKRVLVTQQFPCQNPLPVNSGQAQRVLCPSNSSQRIPLQAQKLVSSHKPVQNQKQKQLQATSVPHPVSRPLNNTQKSKQPLPSAPENNPEEELASKQKNEESKKRQWALEDFEIGRPLGKGKFGNVYLAREKQSKFILALKVLFKAQLEKAGVEHQLRREVEIQSHLRHPNILRLYGYFHDATRVYLILEYAPLGTVYRELQKLSKFDEQRTATYITELANALSYCHSKRVIHRDIKPENLLLGSAGELKIADFGWSVHAPSSRRTTLCGTLDYLPPEMIEGRMHDEKVDLWSLGVLCYEFLVGKPPFEANTYQETYKRISRVEFTFPDFVTEGARDLISRLLKHNPSQRPMLREVLEHPWITANSSKPSNCQNKESASKQS", "values": [{"measurement": "Km", "setting": "[1]", "result": 65, "unit": "µM"}, {"measurement": "Vmax", "setting": "[1]", "result": 1.8, "unit": "µmol/min/mg"}, {"measurement": "Km", "setting": "[2]", "result": 298, "unit": "µM"}, {"measurement": "Vmax", "setting": "[2]", "result": 1.7, "unit": "µmol/min/mg"}, {"measurement": "Km", "setting": "[3]", "result": 57.1, "unit": "µM"}, {"measurement": "Vmax", "setting": "[3]", "result": 2.2, "unit": "µmol/min/mg"}, {"measurement": "Km", "setting": "[4]", "result": 152, "unit": "µM"}, {"measurement": "Vmax", "setting": "[4]", "result": 2.6, "unit": "µmol/min/mg"}, {"measurement": "kcat/Km", "setting": "[5]", "result": 5, "unit": "µM⁻¹ min⁻¹"}, {"measurement": "kcat/Km", "setting": "[6]", "result": 1, "unit": "µM⁻¹ min⁻¹"}, {"measurement": "kcat/Km", "setting": "[7]", "result": 7, "unit": "µM⁻¹ min⁻¹"}, {"measurement": "kcat/Km", "setting": "[8]", "result": 3, "unit": "µM⁻¹ min⁻¹"}]}
